Results reported in US20260224761A1, “DUAL LABELLED COMPOUNDS TARGETING THE PROSTATE SPECIFIC MEMBRANE ANTIGEN” (priority 2023, published 2026).
Where two headings read alike, the source gives them in different places. One block for each compound: values may come before it. Where a SMILES comes first, the peptide text is derived from it. [ ]: non-standard residue; d: D form. The star is where a group is joined. X1 = O=C(O)CC[C@H](NC(=O)N[C@@H](CCCCNC(=O)CCCCCCC(=O)*)C(=O)O)C(=O)O; d2Nal = N[C@H](Cc1ccc2ccccc2c1)C(=O)O; Mercaptoacetyl = O=C(CS)*

Tests used:
[1] = Biodistribution in LNCaP xenograft bearing NSG mice; assay type: in vivo; settings: NSG, mouse, in vivo, iv, total radioactivity; for tissue uptake at 2 h: 1 nmol/animal; for tissue uptake at 6 h: 0.1 nmol/animal
Protocol: (§1) The biodistribution of [^99mTc]PSMA-HSG, [^99mTc]EuK(SO3)Cy5-mas3 and [^99mTc]EuK(SO3)Cy5(SO3)-mas3 was investigated in LNCaP xenograft bearing NSG mice. […] (0.1 nmol-cohort), respectively.
(§2) To assess the influence of the different ligand designs of [^99mTc]PSMA-HSG and [^99mTc]mas3-(SO3)Cy5(SO3)—EuK on in vivo PSMA-targeting and general pharmacokinetics, their in vivo biodistribution was investigated in LNCaP xenograft bearing NSG mice in two different experimental settings: • A) at 2 h p.i. using a ligand dose of 1 nmol/animal. These conditions were chosen to allow comparability of the data from this study (Table 3) with previous results in a different tumor model (Hensbergen, A. W. et al., J. Nucl. Med., 2020, 61, 234-241). Here, [^99mTc]mas3-Cy5(SO3)—EuK was additionally included as an internal reference to establish the “missing link” between studies. • B) at 6 h p.i. using a ligand dose of 0.1 nmol/animal (Table 4). The latter settings were adapted to a timeline and dosing with more similarity to the clinical situation (surgery at a later time point, microdosing principle). Of note, however, a ligand amount of 0.1 nmol/mouse (extrapolation: 280 nmol/70 kg patient) still exceeds the potentially applicable clinical dose (48 nmol/70 kg patient for a compound with a molecular weight of −2100 g/mol). Nevertheless, it represents a dose level at which significant competition effects between unlabeled precursor and radioligand for PSMA binding sites in tumor tissue are not probable (Eder A. C. et al., J. Nucl. Med., 2021, 62, 1461-1467; Kalidindi T. M. et al., Eur. J. Nucl. Med. Mol. Imaging, 2021, 48, 2642-2651).

[2] = Lipophilicity, modified shake-flask method; assay type: physicochemical
Protocol: The lipophilicity of [^99mTc]PSMA-HSG, [^99mTc]EuK(SO3)Cy5-mas3 and [^99mTc]EuK(SO3)Cy5(SO3)-mas3 was determined via a modified shake-flask method as described ([…]. et al., Eur. J. Nuc. Mol. Med. Imaging Res., 2014, 4, 63).

PSMA [3] = target: T1, PSMA (Homo sapiens, UniProt Q04609); experiment: Competitive binding experiments (IC50) using PSMA-expressing LNCaP cells and ([125I]I-BA)EuK as standard radioligand
T1 construct: using PSMA-expressing LNCaP cells and ([^125I]I-BA)EuK as standard radioligand; endogenous in cells; host or cells: LNCaP cells
Protocol: Competitive binding experiments (IC50) were carried out in accordance with an established protocol ([…]. et al., Eur. J. Nuc. Mol. Med. Imaging Res., 2014, 4, 63) using PSMA-expressing LNCaP cells and ([^125I]I-BA)EuK as standard radioligand.

Plasma protein binding = assay type: in vitro ADME; settings: plasma
Protocol: Quantum yield, molar extinction coefficient and serum protein binding experiments were performed according to previously published procedures (Hensbergen A. W. et al., Dyes and Pigments, 2018, 152, 19-28).

[4] = system: LNCaP xenograft bearing NSG mice; experiment: Biodistribution in LNCaP xenograft bearing NSG mice; assay type: in vivo
Protocol: as §1, §2

[5] = system: PC346C orthotopic xenografts in Balb/c nude mice; settings: 1 nmol ligand, 2 h p.i.; cited from earlier work
PSMA [6] = target: T1, PSMA; settings: LNCaP cells; reference compounds, assayed under identical conditions (literature cited in table title); # = free mas3-chelator; cited from earlier work

T1 sequence (Q04609 whole entry): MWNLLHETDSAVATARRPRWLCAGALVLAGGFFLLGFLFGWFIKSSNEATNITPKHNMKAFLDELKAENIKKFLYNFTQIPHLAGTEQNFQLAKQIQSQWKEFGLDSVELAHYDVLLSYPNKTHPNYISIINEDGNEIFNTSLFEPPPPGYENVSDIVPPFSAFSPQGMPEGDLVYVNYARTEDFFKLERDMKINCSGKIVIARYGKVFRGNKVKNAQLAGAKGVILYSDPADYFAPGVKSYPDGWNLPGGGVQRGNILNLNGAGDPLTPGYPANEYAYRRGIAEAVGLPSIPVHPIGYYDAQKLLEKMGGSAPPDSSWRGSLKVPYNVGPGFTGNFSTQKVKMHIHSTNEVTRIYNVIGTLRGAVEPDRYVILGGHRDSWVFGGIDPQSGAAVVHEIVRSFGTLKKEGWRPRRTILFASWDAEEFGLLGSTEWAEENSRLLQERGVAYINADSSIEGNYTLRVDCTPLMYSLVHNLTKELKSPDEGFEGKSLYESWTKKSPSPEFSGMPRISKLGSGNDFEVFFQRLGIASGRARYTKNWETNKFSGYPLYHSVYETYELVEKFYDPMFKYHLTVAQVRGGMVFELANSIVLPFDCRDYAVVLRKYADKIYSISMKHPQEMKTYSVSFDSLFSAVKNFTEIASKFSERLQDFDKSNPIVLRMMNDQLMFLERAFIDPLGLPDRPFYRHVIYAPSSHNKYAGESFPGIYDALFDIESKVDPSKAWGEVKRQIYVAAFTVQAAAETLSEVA

lower PSMA-affinity compared to [99mTc]PSMA-HSG (PSMA [3]): 4.5 fold
Compound: CC1(C)C(/C=C/C=C/C=C2/N(CCCCNC(=O)CCCCCNC(=O)[C@@H](CO)NC(=O)[C@@H](CO)NC(=O)[C@@H](CO)NC(=O)CS)c3ccc(S(=O)(=O)O)cc3C2(C)C)=[N+](CCCCCC(=O)NCCCC[C@H](NC(=O)N[C@@H](CCC(=O)O)C(=O)O)C(=O)O)c2ccc(S(=O)(=O)[O-])cc21 [[^99mTc]mas3-(SO3)Cy5(SO3)-EuK, metal not drawn]
tissue uptake at 2 h ([1]; Biodistribution: LNCaP tumor): 3.5 ± 1.1 %ID/g
tissue uptake at 2 h ([1]; Biodistribution: blood): 0.7 ± 0.1 %ID/g
tissue uptake at 2 h ([1]; Biodistribution: heart): 0.3 ± 0.1 %ID/g
tissue uptake at 2 h ([1]; Biodistribution: intestines): 4.2 ± 0.4 %ID/g
tissue uptake at 2 h ([1]; Biodistribution: kidneys): 59.2 ± 14.4 %ID/g
tissue uptake at 2 h ([1]; Biodistribution: liver): 1 ± 0.4 %ID/g
tissue uptake at 2 h ([1]; Biodistribution: lung): 1.1 ± 0.2 %ID/g
tissue uptake at 2 h ([1]; Biodistribution: muscle): 0.2 ± 0.03 %ID/g
tissue uptake at 2 h ([1]; Biodistribution: pancreas): 0.3 ± 0.1 %ID/g
tissue uptake at 2 h ([1]; Biodistribution: salivary glands): 3.1 ± 0.5 %ID/g
tissue uptake at 2 h ([1]; Biodistribution: spleen): 4.3 ± 1.3 %ID/g
tissue uptake at 2 h ([1]; Biodistribution: stomach): 0.6 ± 0.1 %ID/g
logP [2]: -2.99
fraction unbound (Plasma protein binding; Plasma Protein Binding (%)): 0.256

Compound: CC1(C)C(/C=C/C=C/C=C2/N(CCCCNC(=O)CCCCNC(=O)[C@@H](CO)NC(=O)[C@@H](CO)NC(=O)[C@@H](CO)NC(=O)CS)c3ccccc3C2(C)C)=[N+](CCCCCC(=O)NCCCC[C@H](NC(=O)N[C@@H](CCC(=O)O)C(=O)O)C(=O)O)c2ccc(S(=O)(=O)[O-])cc21 [[^99mTc]mas3-Cy5(SO3)-EuK, metal not drawn]
kidney accumulation compared to both ligands containing disulfo-Cy5 ([4]; 2 h p.i., 1 nmol/animal): threefold lower
increase of tumor accumulation over time ([4]; 6 h p.i./0.1 nmol versus 2 h p.i./1 nmol): only slightly increased
tissue uptake at 6 h ([1]; 6 h p.i., read-out: Biodistribution: LNCaP tumor): 8.1 ± 1.4 %ID/g
tissue uptake at 6 h ([1]; 6 h p.i., read-out: Biodistribution: blood): 0.7 ± 0.1 %ID/g
tissue uptake at 6 h ([1]; 6 h p.i., read-out: Biodistribution: heart): 0.3 ± 0.1 %ID/g
tissue uptake at 6 h ([1]; 6 h p.i., read-out: Biodistribution: intestines): 9.7 ± 1.1 %ID/g
tissue uptake at 6 h ([1]; 6 h p.i., read-out: Biodistribution: kidneys): 70 ± 22 %ID/g
tissue uptake at 6 h ([1]; 6 h p.i., read-out: Biodistribution: liver): 1.7 ± 0.3 %ID/g
tissue uptake at 6 h ([1]; 6 h p.i., read-out: Biodistribution: lung): 0.8 ± 0.2 %ID/g
tissue uptake at 6 h ([1]; 6 h p.i., read-out: Biodistribution: muscle): 0.2 ± 0.1 %ID/g
tissue uptake at 6 h ([1]; 6 h p.i., read-out: Biodistribution: pancreas): 0.3 ± 0.1 %ID/g
tissue uptake at 6 h ([1]; 6 h p.i., read-out: Biodistribution: salivary glands): 8.9 ± 2.1 %ID/g
tissue uptake at 6 h ([1]; 6 h p.i., read-out: Biodistribution: spleen): 1.9 ± 0.6 %ID/g
tissue uptake at 6 h ([1]; 6 h p.i., read-out: Biodistribution: stomach): 1.4 ± 0.3 %ID/g
tissue to tissue ratio at 6 h ([1]; 0.1 nmol/mouse, 6 h p.i., 0.1 nmol, read-out: tumor/kidney ratio): 0.12 ± 0.04
tissue uptake at 2 h ([1]; 2 h p.i., read-out: Biodistribution: LNCaP tumor): 6.6 ± 2.8 %ID/g
tissue uptake at 2 h ([1]; 2 h p.i., read-out: Biodistribution: blood): 0.9 ± 0.1 %ID/g
tissue uptake at 2 h ([1]; 2 h p.i., read-out: Biodistribution: heart): 0.4 ± 0.1 %ID/g
tissue uptake at 2 h ([1]; 2 h p.i., read-out: Biodistribution: intestines): 6.3 ± 2.5 %ID/g
tissue uptake at 2 h ([1]; 2 h p.i., read-out: Biodistribution: kidneys): 21 ± 4.2 %ID/g
tissue uptake at 2 h ([1]; 2 h p.i., read-out: Biodistribution: liver): 1.3 ± 0.5 %ID/g
tissue uptake at 2 h ([1]; 2 h p.i., read-out: Biodistribution: lung): 1.1 ± 0.1 %ID/g
tissue uptake at 2 h ([1]; 2 h p.i., read-out: Biodistribution: muscle): 0.2 ± 0.03 %ID/g
tissue uptake at 2 h ([1]; 2 h p.i., read-out: Biodistribution: pancreas): 0.3 ± 0.1 %ID/g
tissue uptake at 2 h ([1]; 2 h p.i., read-out: Biodistribution: salivary glands): 1.7 ± 0.3 %ID/g
tissue uptake at 2 h ([1]; 2 h p.i., read-out: Biodistribution: spleen): 1.9 ± 0.5 %ID/g
tissue uptake at 2 h ([1]; 2 h p.i., read-out: Biodistribution: stomach): 0.5 ± 0.1 %ID/g
tissue to tissue ratio at 2 h ([1]; 1 nmol/mouse, 2 h p.i., 1 nmol, read-out: tumor/kidney ratio): 0.31 ± 0.15
absolute intestinal uptake [5]: 1.61±0.29 % iD/g
tumor accumulation [5]: 15.2±2.9 % iD/g
logP ([2]; radiolabelled tracer, shake-flask, read-out: lipophilicity [log POW]): -1.94
fraction unbound (Plasma protein binding; radiolabelled tracer, four tracers compared in this study, read-out: Plasma Protein Binding (%) (converted)): 0.035

Compound: O=C(O)CC[C@H](NC(=O)N[C@@H](CCCCNC(=O)CCCCCCC(=O)NCCCC[C@@H](NC(=O)[C@@H](Cc1ccc2ccccc2c1)NC(=O)[C@@H](Cc1ccc(O)cc1)NC(=O)[C@H](CO)NC(=O)[C@H](CO)NC(=O)[C@H](CO)NC(=O)CS)C(=O)O)C(=O)O)C(=O)O [PSMA-I&S] (Mercaptoacetyl-SSS[dY][d2Nal][dK](X1)-OH)
IC50 (PSMA [6]): 39.7 ± 1.2 nM

IC50 (PSMA [3]; LNCaP cells, free mas3-chelator, novel compounds): 29.6 ± 5.6 nM
Compound: CC(=O)SCC(=O)N[C@H](CO)C(=O)N[C@H](CO)C(=O)N[C@H](CO)C(=O)N[C@H](CCCCNC(=O)CCCCCN1\C(=C/C=C/C=C/C2=[N+](C)c3ccc(S(=O)(=O)O)cc3C2(C)C)C(C)(C)c2cc(S(=O)(=O)O)ccc21)C(=O)N[C@H](Cc1ccc(O)cc1)C(=O)N[C@H](Cc1ccc2ccccc2c1)C(=O)N[C@H](CCCCNC(=O)CCCCCCC(=O)NCCCC[C@H](NC(=O)N[C@@H](CCC(=O)O)C(=O)O)C(=O)O)C(=O)O [PSMA-HSG, Ac-mas3-k(Sulfo-Cy5)-γ-nal-k-Sub-EuK]
